Test results as given in patent publication US20240270826A1 (NATIONAL RESEARCH COUNCIL OF CANADA, published 2024).

B1: NRCoV2-02 VHH-Fc (Fc fusion)
chain: EVQLVESGGGLVQAGGSLRLSCAASGFTFSNYAMNWVRQAPGKGLEWVSGISGRGDDTRYADSVKGRFTISRDNAKNTLFLQMRSLRPEDTGVYRCTKGPDLYYFGSGYSDRGQGTQVTVSS
notes: bivalent VHH-Fc
B2: NRCoV2-MRed05 VHH-Fc (Fc fusion)
chain: EVQLVESGGGLVQPGGSLRLSCAASGFTLDYYAIGWFRQAPGKEREGVSCISSSDGSTLYADSVKGRFTISRDNAKNTVYLQMNSLKPEDTAVYYCATGPQAYYSGSYYFQCPQAGMDYWGKGTQVTVSS
notes: bivalent VHH-Fc
B3: NRCoV2-12 VHH-Fc (Fc fusion)
chain: EVQLQQSGGGLVQAGGSLRLSCAASGRTFRNYVMGWFRQAPQAPGKDHEFVAAISWGGTEIYYADSVKGRFTISRDNAKNTVYLQMNSLKPEDTAVYYCAADRGLSYYYTRTTEYNYWGQGTQVTVSS
notes: bivalent VHH-Fc
B4: NRCoV2-17 VHH-Fc (Fc fusion)
chain: EVQLQQSGGGLVQTGGSLRLSCAAAGSPFSQLAMSWYRQISGKERAWVASISPTGNRSYSKIAKGRFTISRDNAKNTVTLQMTSLKPEDTAAYICQAANVNGGDYWGQGTQVTVSS
notes: bivalent VHH-Fc
B5: NRCoV2-05 VHH-Fc (Fc fusion)
chain: EVKLVQSGGGLVQPGGSLRLSCAASGFIFSNYAMNWVRQAPGKGLEWVSGINSGGGDTRYADSVKGRFTVSRDNAKNTLYLQMNSLKPEDTGVYYCSKGPVSSYYGSGYDYRGQGTQVTVSS
notes: bivalent VHH-Fc
B6: NRCoV2-10 VHH-Fc (Fc fusion)
chain: QLQLQESGGGLVQPGGSLTLSCAASGNTFSRSNMHWYRQAPGAQREWVAAISSRGISTYAYSAKGRFTISRDNAKNTVSLQMNSLKPEDTAVYYCYAADDLGDYWGQGTQVTVSS
notes: bivalent VHH-Fc
B7: NRCoV2-1d VHH-Fc (Fc fusion)
chain: EVQLVESGGGSVQPGGSLRLSCAASGSTLDYYAIGWFRQAPGKEREWVSSVSSSDGNTLYADSVKGRFTISRDNAKNTVYLQMNSLKAEDTAVYVCAADYSMRPFAVGRWHRDYEYWGQGTQVTVSS
notes: bivalent VHH-Fc
B8: NRCoV2-14 VHH-Fc (Fc fusion)
chain: EVQLVSSGGGLVQAGGSLRLSCEASGTTFSHYAVGWYRQAPGKQREWVASISVFGSTTYGGSVAGRFTISRDNDKNTVDLQMNSLKPEDTAVYYCHAVNADIGGDYWGQGTQVTVSS
notes: bivalent VHH-Fc
B9: NRCoV2-SR13 VHH-Fc (Fc fusion)
chain: EVQLVESGGGLVTTGGSLRLSCATSGSRFGSKHMAWYRQAPGKQRDLVAAISSGGSTHYGSSVKGRFTISRDNAKSTVYLQMNSLNPEDTAVFYCNMGGWDYRSNTYIPGSRSDYWGQGTQVTVSS
notes: bivalent VHH-Fc
B10: NRCoV2-04 VHH-Fc (Fc fusion)
chain: AVQLVDSGGGLVQPGGSLRLSCAASGSPFSNVVMAWYRQAPGKQRERVAFISGGGIADYIMSVKGRFTISRDNAKNTVYLQMNSLKPEDTAVYYCWSSYESTWGQGTQVTVSS
notes: bivalent VHH-Fc
B11: NRCoV2-SR02 VHH-Fc (Fc fusion)
chain: EVQLVDSGGGLVQAGGSLRLSCTASEFTLNYYSIGWFRQSPGKEREGVSCIRYSGGGIDYADSVKGRFTISRDNAKNTVYLTMNSLKPEDTAVYYCAADRLYSRACPTAGGRNYWGQGTQVTVSS
notes: bivalent VHH-Fc
B12: NRCoV2-20 VHH-Fc (Fc fusion)
chain: EVQLQQSGGGLVQPGGSLRLSCAASGRTFSNYVVGWFRQAPQAPGKDHEFVAVISGSDTETYYADSVKGRFTISRDNAKNTVYLQMNSLKPEDTAVYYCAADRGMSYYYTRATEYYYWGQGTQVTVSS
notes: bivalent VHH-Fc
B13: NRCoV2-11 VHH-Fc (Fc fusion)
chain: EVQLVSSGGGLVQPGGSLRLSCAASGSSLDSYSVSWFRQAPGKEREWISFISRYYSSTYYTDSVKGRFTTSRDGDQKTVHLQMNSLKPEDTAVYYCAARSRDFSSPFSATDTYTSWGQGTQVTVSS
notes: bivalent VHH-Fc
B14: NRCoV2-15 VHH-Fc (Fc fusion)
chain: EVQLVSSGGGLVEAGGSLRLSCIASGSTSGRNTMGWFRQAPGKQREWVAIVSTSGATNYAGSVKGRFTLSRDNAKNAVYLQMNNLKPEDTAVYYCYAAYGGGGDYWGQGTQVTVSS
notes: bivalent VHH-Fc
B15: NRCoV2-SR01 VHH-Fc (Fc fusion)
chain: EVQLVQSGGGSVQAGGSLRLSCVASGFTFDNYAIGWFRQAPGKEREGVSCISGNGGVTIYADSVKGRFTISRDNAKNLVYLQMNSLKPEDTAVYYCAATGIRSTWSVYGCSRLAGPYDYWGQGTQVTVSS
notes: bivalent VHH-Fc
B16: NRCoV2-MRed04 VHH-Fc (Fc fusion)
chain: EVQLVESGGGLVQPGRSLRLSCAASGNSFSISTMGWFRQAPGKERELVASIWSDTTTSYADSVKGRFTISTDNTRTKVYLQMSSLNPEDTAVYYCAADRGFVVRGQYDYWGQGTQVTVSS
notes: bivalent VHH-Fc
B17: NRCoV2-07 VHH-Fc (Fc fusion)
chain: QVQLVQSGGGLVQPGGSLRLSCAASGVTLDYYAIGWFRQAPGKEREAVSCISSNGRRNHYVASVRGRFTISRDNAKSTVYLQMNSLKPEDTAVYYCAAVQDVHGDNYYCTSPNEYNVWGQGTQVTVSS
notes: bivalent VHH-Fc
B18: NRCoV2-18 VHH-Fc (Fc fusion)
chain: EVQLVESGGGLVQAGGSLRLSCVASGITISGYNMAWWRQTRGKQTERVAFINSGGSTTYSDSVKGRFTISRDNGKNTAYLQMNSLNAEDTADYFCSLHTSHDYWGQGTQVTVSS
notes: bivalent VHH-Fc
B19: NRCoV2-17 VHH-Fc (Fc fusion)
chain: EVQLQQSGGGLVQTGGSLRLSCAAAGSPFSQLAMSWYRQISGKERAWVASISPTGNRSYSKIAKGRFTISRDNAKNTVTLQMTSLKPEDTAAYICQAANVNGGDYWGQGTQVTVSS
notes: bivalent VHH-Fc
B20: NRCoV2-10 VHH-Fc (Fc fusion)
chain: QLQLQESGGGLVQPGGSLTLSCAASGNTFSRSNMHWYRQAPGAQREWVAAISSRGISTYAYSAKGRFTISRDNAKNTVSLQMNSLKPEDTAVYYCYAADDLGDYWGQGTQVTVSS
notes: bivalent VHH-Fc
B21: NRCoV2-14 VHH-Fc (Fc fusion)
chain: EVQLVSSGGGLVQAGGSLRLSCEASGTTFSHYAVGWYRQAPGKQREWVASISVFGSTTYGGSVAGRFTISRDNDKNTVDLQMNSLKPEDTAVYYCHAVNADIGGDYWGQGTQVTVSS
notes: bivalent VHH-Fc
B22: NRCoV2-04 VHH-Fc (Fc fusion)
chain: AVQLVDSGGGLVQPGGSLRLSCAASGSPFSNVVMAWYRQAPGKQRERVAFISGGGIADYIMSVKGRFTISRDNAKNTVYLQMNSLKPEDTAVYYCWSSYESTWGQGTQVTVSS
notes: bivalent VHH-Fc
B23: NRCoV2-20 VHH-Fc (Fc fusion)
chain: EVQLQQSGGGLVQPGGSLRLSCAASGRTFSNYVVGWFRQAPQAPGKDHEFVAVISGSDTETYYADSVKGRFTISRDNAKNTVYLQMNSLKPEDTAVYYCAADRGMSYYYTRATEYYYWGQGTQVTVSS
notes: bivalent VHH-Fc
B24: NRCoV2-12 VHH-Fc (Fc fusion)
chain: EVQLQQSGGGLVQAGGSLRLSCAASGRTFRNYVMGWFRQAPQAPGKDHEFVAAISWGGTEIYYADSVKGRFTISRDNAKNTVYLQMNSLKPEDTAVYYCAADRGLSYYYTRTTEYNYWGQGTQVTVSS
notes: bivalent VHH-Fc
B25: NRCoV2-11 VHH-Fc (Fc fusion)
chain: EVQLVSSGGGLVQPGGSLRLSCAASGSSLDSYSVSWFRQAPGKEREWISFISRYYSSTYYTDSVKGRFTTSRDGDQKTVHLQMNSLKPEDTAVYYCAARSRDFSSPFSATDTYTSWGQGTQVTVSS
notes: bivalent VHH-Fc
B26: NRCoV2-15 VHH-Fc (Fc fusion)
chain: EVQLVSSGGGLVEAGGSLRLSCIASGSTSGRNTMGWFRQAPGKQREWVAIVSTSGATNYAGSVKGRFTLSRDNAKNAVYLQMNNLKPEDTAVYYCYAAYGGGGDYWGQGTQVTVSS
notes: bivalent VHH-Fc
B27: NRCoV2-SR01 VHH-Fc (Fc fusion)
chain: EVQLVQSGGGSVQAGGSLRLSCVASGFTFDNYAIGWFRQAPGKEREGVSCISGNGGVTIYADSVKGRFTISRDNAKNLVYLQMNSLKPEDTAVYYCAATGIRSTWSVYGCSRLAGPYDYWGQGTQVTVSS
notes: bivalent VHH-Fc

Target: SARS-CoV-2 spike protein S on live virus, Alpha variant (SARS-CoV-2 (Alpha variant), UniProt P0DTC2 14-1273)
Assay: cell-based or functional assay

Row | Binder | LVNA IC50 [nM]
1 | B1 | 0.09
2 | B2 | 0.13
3 | B3 | 1.35
4 | B4 | 0.61
5 | B5 | 0.03
6 | B6 | 0.47
7 | B7 | 0.37
8 | B8 | 0.88
9 | B9 | ~100
10 | B10 | 2.3
11 | B11 | 9.05
12 | B12 | 1.94
13 | B13 | 2.3
14 | B14 | 0.16
15 | B15 | 3.77
16 | B16 | 4.5
17 | B17 | 0.42
18 | B18 | 2.82

Target: Human SARS-CoV-2 Omicron (B.1.1.529) S (SARS-CoV-2 (Omicron variant))
Assay: flow cytometry SVNA: VHH-Fc inhibits S binding to ACE2 on Vero E6 cells

Row | Binder | IC50 [nM]
19 | B19 | 3.4
20 | B20 | 4.3
21 | B21 | 5.2
22 | B22 | 18.4
23 | B23 | 13.1
24 | B24 | 17.2
25 | B25 | 8.8
26 | B26 | 3
27 | B27 | 4.4
